Measurements taken from patent US20080081903A1, “METHOD FOR SCREENING TRANSCRIPTIONAL COREGULATORY PROTEINS OF TRANSCRIPTION FACTORS, AND ANDROGEN RECEPTOR TRANSCRIPTIONAL COREGULATORY PROTEINS AS TARGETS FOR ANDROGEN RECEPTOR-DEPENDENT DISEASES” (NEW YORK UNIVERSITY, priority 2001, published 2008).

T1: androgen receptor N-terminus (AR18-500) (Rattus norvegicus, UniProt P15207)
T1 construct: receptor residues 18 through 500 (using the rat androgen receptor number scheme); expressed in transfected cells; host or cells: Saccharomyces cerevisiae EGY188
T1 sequence (P15207 18-500): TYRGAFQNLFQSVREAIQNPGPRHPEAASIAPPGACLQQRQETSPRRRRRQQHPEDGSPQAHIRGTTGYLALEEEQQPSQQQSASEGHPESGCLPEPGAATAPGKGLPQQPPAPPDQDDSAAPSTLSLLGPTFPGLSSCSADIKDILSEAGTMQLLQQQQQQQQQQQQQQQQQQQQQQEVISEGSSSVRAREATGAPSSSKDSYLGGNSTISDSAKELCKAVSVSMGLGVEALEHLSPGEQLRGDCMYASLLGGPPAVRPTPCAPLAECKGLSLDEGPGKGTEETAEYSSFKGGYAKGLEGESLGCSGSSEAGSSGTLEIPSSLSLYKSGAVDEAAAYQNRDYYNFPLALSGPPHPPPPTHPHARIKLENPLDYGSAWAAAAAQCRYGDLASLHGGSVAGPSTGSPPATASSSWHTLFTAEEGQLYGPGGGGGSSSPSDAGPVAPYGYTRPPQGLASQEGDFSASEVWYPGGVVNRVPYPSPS

T2: androgen receptor (AR) N-terminus (18-500) (Rattus norvegicus, UniProt P15207)
T2 construct: receptor residues 18 through 500 (using the rat androgen receptor number scheme); expressed in transfected cells; host or cells: Saccharomyces cerevisiae EGY188
T2 sequence (P15207 18-500): T1 sequence (P15207 18-500)

T3: androgen receptor ligand-binding domain (579-901) (Rattus norvegicus, UniProt P15207)
T3 construct: expressed in transfected cells; host or cells: yeast (modified two-hybrid assay)
T3 sequence (P15207 579-901): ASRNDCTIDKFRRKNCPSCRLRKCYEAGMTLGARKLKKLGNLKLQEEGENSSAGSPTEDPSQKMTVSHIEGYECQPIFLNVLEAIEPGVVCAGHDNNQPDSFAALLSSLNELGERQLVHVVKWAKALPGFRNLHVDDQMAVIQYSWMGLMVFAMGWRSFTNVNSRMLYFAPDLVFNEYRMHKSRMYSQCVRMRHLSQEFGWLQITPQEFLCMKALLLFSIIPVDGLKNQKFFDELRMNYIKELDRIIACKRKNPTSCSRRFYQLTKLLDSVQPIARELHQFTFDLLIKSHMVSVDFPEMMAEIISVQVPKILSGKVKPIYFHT

B1: ART-37: Androgen Receptor Trapped protein, SEQ ID NO:6, unknown function, represented in EST database (protein)
chain: EFGTRARFTRGKSALLERALARPRTEVSLSAFALLSPSWYSTARAVFSVAELQSRLAALGRQVGARVLDALVAREKGARRETKVLGALLFVKGAVWKALFGKEADKLEQANDDARTFYIIEREPLINTYISVPKENSTLNCASFTAGIVEAVLTHSGFPAKVTAHWHKGTTLMIKFEEAVIARDRLEGR
modifications: Human

Columns and labels:
[1] = molecular target: T1, androgen receptor N-terminus (AR18-500); test: Modified yeast two-hybrid, quantitative liquid beta-galactosidase assay; format: binding; conditions: LexA-ART fusions vs AR18-500; twelve hour incubation in galactose-containing media
Description: (§1) The modified yeast two hybrid assay is described in Hittelman et al., 1999. EGY188 was transformed by the lithium acetate method with (i) pJG4-5:AR18-500, (ii) pEG202:LNCaP cell cDNA library and (iii) pJK103, a β-galactosidase reporter gene with a single LexA operator. Potential interacting proteins were selected by plating the cDNA library expressing transformants onto galactose plates lacking leucine and containing X-gal.
Yeast were grown in selective liquid media containing 2% glucose for approximately 12 hours, pelleted, washed once with sterile H2O, normalized according to cell number and resuspended to an optical density (OD600) of 0.15 in 2% galactose/1% raffinose. β-galactosidase assays were performed 12 hours later as described previously (Garabedian et al., 1992).
Out of approximately one million library transformants, eight clones were isolated that interact with the androgen receptor N-terminus. There protein factors were termed ARTs, for Androgen Receptor Trapped, by the present inventors. The eight ART clones were sequenced and were subjected to a database search using the BLAST program. A quantitative liquid beta-galactosidase assay was used to measure the relative strength of interaction between the androgen receptor N-terminus and the ARTs using the yeast two-hybrid system. The levels of expression of the ARTs in yeast were similar, as determined by immunoblotting using an antibody to the LexA DNA-binding domain that is common to all of the ARTs.
ARTs expressed as fusion proteins with the LexA DNA binding domain were analyzed for their ability to interact with AR18-500. The relative strength of interaction was determined by a quantitative liquid beta-galactosidase assay after a twelve hour incubation in galactose-containing media at 30EC. The LexA vector alone gives 1 unit of activity.

[2] = molecular target: T2, androgen receptor (AR) N-terminus (18-500); test: Modified yeast two-hybrid, qualitative plate beta-galactosidase assay; format: binding; conditions: AR N-terminus, AR LBD, Sp1A, Sp1B, CREB, TAFII130, GR AF1, SRC-1
Source text: as §1
To analyze the specificity of ART interaction, the capacity of the strongest androgen receptor N-terminus-interacting factors to associate with a panel of transcriptional regulatory proteins in the modified yeast two-hybrid assay was examined. ART-5, ART-27, and ART-37 were tested for interaction with Sp1A (Sp183-262), Sp1B (Sp1263-524) the cyclic AMP response element binding protein (CREB3-296), TBP-associated factor 130 (TAFII130270-700), the glucocorticoid receptor AF1 (GR107-237), and the steroid receptor coactivator-1 (SRC-1374-800).
The strength of interaction was determined by a qualitative plate beta-galactosidase assay after a 24 hour incubation on galactose X-gal plates at 301 C.
ART-27 derivatives containing amino acids 1-45, 1-67, 1-127, 46-157, 68-157, 127-157, 1-157, and 1-45/127-157 were expressed as fusion proteins with LexA. These derivatives were tested for their ability to interact with the androgen receptor N-terminus (AR18-500). The strength of interaction was determined by a qualitative plate beta-galactosidase assay after a 24 hour incubation on galactose X-gal plates at 301 C.

[3] = molecular target: T3, androgen receptor ligand-binding domain (579-901); test: Modified yeast two-hybrid specificity panel; conditions: absence or presence of hormone

Row | Molecule | relative strength of interaction with androgen receptor N-terminus [1] | specificity of interaction among panel of transcriptional regulatory factors [2] | interaction with androgen receptor ligand binding domain [3]
1 | ART-2: Androgen Receptor Trapped protein, SEQ ID NO:10, present in the EST database (EFGTRIHCPHNPRPTRRSTDHSISPSIDPHLQISHQQPTNHHPTMTNQTNLKTNDNHTQH; Human) | Weak | – | –
2 | ART-6: Androgen Receptor Trapped protein, SEQ ID NO:8, an EST (EFGTRLKPYVSYLAPESEETPLTAAQLFSKPLAPCHRKGLQG; Human) | Intermediate strength | – | –
3 | ART-9: corresponds to ZNF160, a zinc finger containing protein of unknown function | Weak | – | –
4 | B1 | strongest | relatively promiscuous | No interaction
